Measured values taken from paper PMC7570391, “Cyclic Di-adenosine Monophosphate Regulates Metabolism and Growth in the Oral Commensal Streptococcus mitis” (Microorganisms, 2020).
One block for each molecule: values may come before it.

Tests used:
[1] = test system: [H][C@@]1(O)[C@]2([H])OP(=O)(O)OC[C@@]3([H])O[C@@]([H])(n4cnc5c(N)ncnc54)[C@]([H])(O)[C@]3([H])OP(=O)(O)OC[C@@]2([H])O[C@@]1([H])n1cnc2c(N)ncnc21; assay: purified protein; details: 1 mM MnCl2, 50 mM Tris-HCl pH 7.5, 37 °C, 2.5 μM enzyme, product pApA
Text: pApA formation, reversed-phase HPLC, Michaelis-Menten fit on Pde1_53–657

[2] = test system: Nc1ncnc2c1ncn2[C@@H]1O[C@H](COP(=O)(O)O[C@H]2[C@@H](O)[C@H](n3cnc4c(N)ncnc43)O[C@@H]2COP(=O)(O)O)[C@@H](O)[C@H]1O; assay: purified protein; details: 1 mM MnCl2, 50 mM Tris-HCl pH 7.5, 37 °C, 5 μM enzyme, product AMP
Text: AMP formation, reversed-phase HPLC, Michaelis-Menten fit on Pde1_53–657

[3] = biological target: Pde2, full-length S. mitis DhhP-type phosphodiesterase (SM12261_1122) (Streptococcus mitis CCUG 31611); assay: SEC; Superose 6 Increase 10/300 GL on an ÄKTA Pure 25; SEC buffer 1x PBS pH 7.4 with 10% glycerol; apparent molecular weight from vE/v0 against gel filtration markers (12,000-200,000 Da)
[4] = biological target: CdaA_(103–285), truncated S. mitis CdaA-type diadenylate cyclase (SM12261_1351) lacking the transmembrane helices (Streptococcus mitis CCUG 31611); assay: as above
[5] = substrate: Nc1ncnc2c1ncn2[C@@H]1O[C@H](COP(=O)(O)O[C@H]2[C@@H](O)[C@H](n3cnc4c(N)ncnc43)O[C@@H]2COP(=O)(O)O)[C@@H](O)[C@H]1O; assay: AMP formation, reversed-phase HPLC, Michaelis-Menten fit; assay type: biochemical, Streptococcus mitis; details: 1 mM MnCl2, 50 mM Tris-HCl pH 8.5, 37 °C, 0.05 μM enzyme, product AMP
Text: (§1) AMP formation, reversed-phase HPLC, Michaelis-Menten fit on Pde2

[6] = substrate: [H][C@@]1(O)[C@]2([H])OP(=O)(O)OC[C@@]3([H])O[C@@]([H])(n4cnc5c(N)ncnc54)[C@]([H])(O)[C@]3([H])OP(=O)(O)OC[C@@]2([H])O[C@@]1([H])n1cnc2c(N)ncnc21; assay: as above; assay type: biochemical, Streptococcus mitis; details: 1 mM MnCl2, 50 mM Tris-HCl pH 8.5, 37 °C, 10 μM enzyme, product AMP
Text: as §1

Molecule: Pde1_53–657 (Streptococcus mitis NCTC 12261)
Km [1]: 241.3 ± 11.6 µM
Vmax [1]: 621 µM/min
kcat [1]: 4.14 ± 1.99 s⁻¹
kcat/Km [1]: 17000 M⁻¹ s⁻¹
Km [2]: 152.4 ± 03.6 µM
Vmax [2]: 748 µM/min
kcat [2]: 2.49 ± 0.61 s⁻¹
kcat/Km [2]: 16400 M⁻¹ s⁻¹

B1: Pde2 (Streptococcus mitis NCTC 12261) (protein)
chain: MDICHQILEKIKEYDTIIIHRHMKPDPDALGSQVGLKALLKHHFPEKTIKAVGFDEPTLTWMAEMDLVEDSAYQGALVIVCDTANTARIDDKRYSQGDFLIKIDHHPNDDVYGDLSWVDTSSSSASEMITLFAQTTQLALSDRAAELLFAGIIGDTGRFLYPSTTERTLRLAAYLREHNFDFAALTRKMDTMSYKIAKLQGYIYDHLEVDENGAARVILSQEILKRFNVTDAETAAIVGAPGRIDSVSLWGIFVEQADGHYRVRLRSKIHPINEIAKEHDGGGHPLASGANSYSLEENEIIYQKLKNLLKN
Km [5]: 877 ± 312 µM
Vmax [5]: 10600 µM/min
kcat [5]: 3530 ± 623 s⁻¹
kcat/Km [5]: 4.02e+06 M⁻¹ s⁻¹
Km [6]: 148.5 ± 34.8 µM
Vmax [6]: 46.8 µM/min
kcat [6]: 0.078 ± 0.005 s⁻¹
kcat/Km [6]: 525 M⁻¹ s⁻¹

Next, values leading:

stoichiometry N [3]: 2
Molecule: Pde2, full-length S. mitis DhhP-type phosphodiesterase (SM12261_1122) (enzyme)

stoichiometry N [4]: 2
Molecule: CdaA_(103–285), truncated S. mitis CdaA-type diadenylate cyclase (SM12261_1351) lacking the transmembrane helices (domain or fragment)
